# Results published in IntAct's records for PubMed 20924357.
# B1: Cryptic beta-glucoside bgl operon antiterminator (Escherichia coli (strain K12)), P11989 (parent)
# chain: MNMQITKILNNNVVVVIDDQQREKVVMGRGIGFQKRAGERINSSGIEKEYALSSHELNGRLSELLSHIPLEVMATCDRIISLAQERLGKLQDSIYISLTDHCQFAIKRFQQNVLLPNPLLWDIQRLYPKEFQLGEEALTIIDKRLGVQLPKDEVGFIAMHLVSAQMSGNMEDVAGVTQLMREMLQLIKFQFSLNYQEESLSYQRLVTHLKFLSWRILEHASINDSDESLQQAVKQNYPQAWQCAERIAIFIGLQYQRKISPAEIMFLAINIERVRKEH
# Variants of: B1
# Settings: with pthp_ecoli ptsH
row,Variant,effect of a mutation on the interaction
1,H160Y,increasing interaction

# Variants of: B1
# Settings: with pthp_ecoli ptsH
# Remark: another data set of the same source
row,Variant,effect of a mutation on the interaction
1,D100N,increasing interaction

# Variants of: B1
# Settings: with pthp_ecoli ptsH
# Remark: another data set of the same source
row,Variant,effect of a mutation on the interaction
1,H208R,increasing interaction

# Variants of: B1
# Settings: with pt1_ecoli ptsI
row,Variant,effect of a mutation on the interaction
1,H208R,increasing interaction

# Variants of: B1
# Settings: with pt1_ecoli ptsI
# Remark: another data set of the same source
row,Variant,effect of a mutation on the interaction
1,H208R,decreasing interaction
